Drawing on US20050015820A1, this text covers hyperpolarization of POMC neurons (7 nM, 9 of 15 neurons), increase of the frequency of GABAergic IPSCs recorded from POMC neurons (7 nM, 3 of 4 neurons) and hyperpolarization of the membrane potential of POMC cells (Met-Enk 30 µM, whole cell recording, n=10) for two substances.

For test [1], the target named is melanocortin 3 receptor (MC3-R) (mouse) (UniProt P33033). The test can be described thus: cell-based or functional assay.
The target of test [2] is µ opioid receptor (MOP-R) (mouse) (UniProt P42866). The test can be described thus: cell-based or functional assay.
Sequence of µ opioid receptor (MOP-R) (mouse) (P42866 whole entry): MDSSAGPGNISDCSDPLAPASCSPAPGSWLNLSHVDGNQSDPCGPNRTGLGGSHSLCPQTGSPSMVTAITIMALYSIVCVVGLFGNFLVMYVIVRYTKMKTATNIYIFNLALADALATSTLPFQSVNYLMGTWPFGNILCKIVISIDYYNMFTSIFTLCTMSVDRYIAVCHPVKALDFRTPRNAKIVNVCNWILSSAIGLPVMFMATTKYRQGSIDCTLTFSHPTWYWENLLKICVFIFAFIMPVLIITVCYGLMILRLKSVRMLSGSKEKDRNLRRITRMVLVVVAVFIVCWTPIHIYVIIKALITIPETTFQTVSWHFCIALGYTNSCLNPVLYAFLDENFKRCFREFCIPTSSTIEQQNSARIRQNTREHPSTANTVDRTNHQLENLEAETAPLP

Sequence of melanocortin 3 receptor (MC3-R) (mouse) (P33033 whole entry): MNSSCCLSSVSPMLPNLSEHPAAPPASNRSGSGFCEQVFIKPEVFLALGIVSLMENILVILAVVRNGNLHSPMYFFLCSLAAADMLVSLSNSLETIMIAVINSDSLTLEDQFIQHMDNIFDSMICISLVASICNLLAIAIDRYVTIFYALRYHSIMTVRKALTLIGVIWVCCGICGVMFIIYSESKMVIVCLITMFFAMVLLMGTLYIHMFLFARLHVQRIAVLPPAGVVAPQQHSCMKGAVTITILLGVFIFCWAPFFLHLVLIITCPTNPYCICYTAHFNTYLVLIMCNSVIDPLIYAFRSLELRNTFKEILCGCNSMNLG

As for D-Trp^8-γMSH (peptide), in test [1], the hyperpolarization of POMC neurons (7 nM, 9 of 15 neurons) is -5.5 mV and the increase of the frequency of GABAergic IPSCs recorded from POMC neurons (7 nM, 3 of 4 neurons) was 280%.

In test [2], “met-enkephalin (from UniProt P01210 100-104) (peptide)” displayed a hyperpolarization of the membrane potential of POMC cells (Met-Enk 30 µM, whole cell recording, n=10) of 10 to 20 mV.
